From article PMC7367873, “Dissecting the sequence determinants for dephosphorylation by the catalytic subunits of phosphatases PP1 and PP2A” (Nature Communications, 2020)

Key:
GFP-14-3-3β = GFP-14-3-3β co-IP with LC-MS/MS, untreated GFP-14-3-3β versus GFP control (14-3-3 interactome); type: binding, human; details: pairwise comparison untreated vs GFP
[1] = system: GFP-14-3-3β and its binding proteins; test: GFP-14-3-3β co-IP with LC-MS/MS label-free quantification, untreated versus PP1c-treated; parameters: species or system human; details: pairwise comparison PP1 vs untreated
[2] = log2 difference, label-free quantification, 3 replicates each

| Difference (log2), PP1 vs untreated [1] | Difference (log2), PP1 vs untreated [1, 2] | Molecule | Difference (log2), untreated vs GFP (GFP-14-3-3β) | Difference (log2), untreated vs GFP (GFP-14-3-3β; [2]) |
| --- | --- | --- | --- | --- |
| 0.1167 log2 | – | RRP12 (protein, UniProt Q5JTH9 1-1297, looked up) RRP12-like protein: MGRSGKLPSGVSAKLKRWKKGHSSDSNPAICRHRQAARSRFFSRPSGRSDLTVDAVKLHNELQSGSLRLGKSEAPETPMEEEAELVLTEKSSGTFLSGLSDCTNVTFSKVQRFWESNSAAHKEICAVLAAVTEVIRSQGGKETETEYFAALMTTMEAVESPESLAAVAYLLNLVLKRVPSPVLIKKFSDTSKAFMDIMSAQASSGSTSVLRWVLSCLATLLRKQDLEAWGYPVTLQVYHGLLSFTVHPKPKIRKAAQHGVCSVLKGSEFMFEKAPAHHPAAISTAKFCIQEIEKSGGSKEATTTLHMLTLLKDLLPCFPEGLVKSCSETLLRVMTLSHVLVTACAMQAFHSLFHARPGLSTLSAELNAQIITALYDYVPSENDLQPLLAWLKVMEKAHINLVRLQWDLGLGHLPRFFGTAVTCLLSPHSQVLTAATQSLKEILKECVAPHMADIGSVTSSASGPAQSVAKMFRAVEEGLTYKFHAAWSSVLQLLCVFFEACGRQAHPVMRKCLQSLCDLRLSPHFPHTAALDQAVGAAVTSMGPEVVLQAVPLEIDGSEETLDFPRSWLLPVIRDHVQETRLGFFTTYFLPLANTLKSKAMDLAQAGSTVESKIYDTLQWQMWTLLPGFCTRPTDVAISFKGLARTLGMAISERPDLRVTVCQALRTLITKGCQAEADRAEVSRFAKNFLPILFNLYGQPVAAGDTPAPRRAVLETIRTYLTITDTQLVNSLLEKASEKVLDPASSDFTRLSVLDLVVALAPCADEAAISKLYSTIRPYLESKAHGVQKKAYRVLEEVCASPQGPGALFVQSHLEDLKKTLLDSLRSTSSPAKRPRLKCLLHIVRKLSAEHKEFITALIPEVILCTKEVSVGARKNAFALLVEMGHAFLRFGSNQEEALQCYLVLIYPGLVGAVTMVSCSILALTHLLFEFKGLMGTSTVEQLLENVCLLLASRTRDVVKSALGFIKVAVTVMDVAHLAKHVQLVMEAIGKLSDDMRRHFRMKLRNLFTKFIRKFGFELVKRLLPEEYHRVLVNIRKAEARAKRHRALSQAAVEEEEEEEEEEEPAQGKGDSIEEILADSEDEEDNEEEERSRGKEQRKLARQRSRAWLKEGGGDEPLNFLDPKVAQRVLATQPGPGRGRKKDHGFKVSADGRLIIREEADGNKMEEEEGAKGEDEEMADPMEDVIIRNKKHQKLKHQKEAEEEELEIPPQYQAGGSGIHRPVAKKAMPGAEYKAKKAKGDVKKKGRPDPYAYIPLNRSKLNRRKKMKLQGQFKGLVKAARRGSQVGHKNRRKDRRP | 0.888 log2 | – |
| 0.07419 log2 | – | SLC3A2 (protein, UniProt P08195 1-630, looked up) Amino acid transporter heavy …: MELQPPEASIAVVSIPRQLPGSHSEAGVQGLSAGDDSELGSHCVAQTGLELLASGDPLPSASQNAEMIETGSDCVTQAGLQLLASSDPPALASKNAEVTGTMSQDTEVDMKEVELNELEPEKQPMNAASGAAMSLAGAEKNGLVKIKVAEDEAEAAAAAKFTGLSKEELLKVAGSPGWVRTRWALLLLFWLGWLGMLAGAVVIIVRAPRCRELPAQKWWHTGALYRIGDLQAFQGHGAGNLAGLKGRLDYLSSLKVKGLVLGPIHKNQKDDVAQTDLLQIDPNFGSKEDFDSLLQSAKKKSIRVILDLTPNYRGENSWFSTQVDTVATKVKDALEFWLQAGVDGFQVRDIENLKDASSFLAEWQNITKGFSEDRLLIAGTNSSDLQQILSLLESNKDLLLTSSYLSDSGSTGEHTKSLVTQYLNATGNRWCSWSLSQARLLTSFLPAQLLRLYQLMLFTLPGTPVFSYGDEIGLDAAALPGQPMEAPVMLWDESSFPDIPGAVSANMTVKGQSEDPGSLLSLFRRLSDQRSKERSLLHGDFHAFSAGPGLFSYIRHWDQNERFLVVLNFGDVGLSAGLQASDLPASASLPAKADLLLSTQPGREEGSPLELERLKLEPHEGLLLRFPYAA | 0.2155 log2 | – |
| 0.1123 log2 | – | SLC39A7 (protein, UniProt Q92504 1-469, looked up) Zinc transporter SLC39A7: MARGLGAPHWVAVGLLTWATLGLLVAGLGGHDDLHDDLQEDFHGHSHRHSHEDFHHGHSHAHGHGHTHESIWHGHTHDHDHGHSHEDLHHGHSHGYSHESLYHRGHGHDHEHSHGGYGESGAPGIKQDLDAVTLWAYALGATVLISAAPFFVLFLIPVESNSPRHRSLLQILLSFASGGLLGDAFLHLIPHALEPHSHHTLEQPGHGHSHSGQGPILSVGLWVLSGIVAFLVVEKFVRHVKGGHGHSHGHGHAHSHTRGSHGHGRQERSTKEKQSSEEEEKETRGVQKRRGGSTVPKDGPVRPQNAEEEKRGLDLRVSGYLNLAADLAHNFTDGLAIGASFRGGRGLGILTTMTVLLHEVPHEVGDFAILVQSGCSKKQAMRLQLLTAVGALAGTACALLTEGGAVGSEIAGGAGPGWVLPFTAGGFIYVATVSVLPELLREASPLQSLLEVLGLLGGVIMMVLIAHLE | 0.9479 log2 | – |
| 0.07996 log2 | – | DDX17 (protein, UniProt Q92841 1-729, looked up) Probable ATP-dependent RNA …: MPTGFVAPILCVLLPSPTREAATVASATGDSASERESAAPAAAPTAEAPPPSVVTRPEPQALPSPAIRAPLPDLYPFGTMRGGGFGDRDRDRDRGGFGARGGGGLPPKKFGNPGERLRKKKWDLSELPKFEKNFYVEHPEVARLTPYEVDELRRKKEITVRGGDVCPKPVFAFHHANFPQYVMDVLMDQHFTEPTPIQCQGFPLALSGRDMVGIAQTGSGKTLAYLLPAIVHINHQPYLERGDGPICLVLAPTRELAQQVQQVADDYGKCSRLKSTCIYGGAPKGPQIRDLERGVEICIATPGRLIDFLESGKTNLRRCTYLVLDEADRMLDMGFEPQIRKIVDQIRPDRQTLMWSATWPKEVRQLAEDFLRDYTQINVGNLELSANHNILQIVDVCMESEKDHKLIQLMEEIMAEKENKTIIFVETKRRCDDLTRRMRRDGWPAMCIHGDKSQPERDWVLNEFRSGKAPILIATDVASRGLDVEDVKFVINYDYPNSSEDYVHRIGRTARSTNKGTAYTFFTPGNLKQARELIKVLEEANQAINPKLMQLVDHRGGGGGGGGRSRYRTTSSANNPNLMYQDECDRRLRGVKDGGRRDSASYRDRSETDRAGYANGSGYGSPNSAFGAQAGQYTYGQGTYGAAAYGTSSYTAQEYGAGTYGASSTTSTGRSSQSSSQQFSGIGRSGQQPQPLMSQQFAQPPGATNMIGYMGQTAYQYPPPPPPPPPSRK | 0.6933 log2 | – |
| 0.06756 log2 | – | HDLBP (protein, UniProt Q00341 2-1268, looked up) Vigilin: SSVAVLTQESFAEHRSGLVPQQIKVATLNSEEESDPPTYKDAFPPLPEKAACLESAQEPAGAWGNKIRPIKASVITQVFHVPLEERKYKDMNQFGEGEQAKICLEIMQRTGAHLELSLAKDQGLSIMVSGKLDAVMKARKDIVARLQTQASATVAIPKEHHRFVIGKNGEKLQDLELKTATKIQIPRPDDPSNQIKITGTKEGIEKARHEVLLISAEQDKRAVERLEVEKAFHPFIAGPYNRLVGEIMQETGTRINIPPPSVNRTEIVFTGEKEQLAQAVARIKKIYEEKKKKTTTIAVEVKKSQHKYVIGPKGNSLQEILERTGVSVEIPPSDSISETVILRGEPEKLGQALTEVYAKANSFTVSSVAAPSWLHRFIIGKKGQNLAKITQQMPKVHIEFTEGEDKITLEGPTEDVNVAQEQIEGMVKDLINRMDYVEINIDHKFHRHLIGKSGANINRIKDQYKVSVRIPPDSEKSNLIRIEGDPQGVQQAKRELLELASRMENERTKDLIIEQRFHRTIIGQKGERIREIRDKFPEVIINFPDPAQKSDIVQLRGPKNEVEKCTKYMQKMVADLVENSYSISVPIFKQFHKNIIGKGGANIKKIREESNTKIDLPAENSNSETIIITGKRANCEAARSRILSIQKDLANIAEVEVSIPAKLHNSLIGTKGRLIRSIMEECGGVHIHFPVEGSGSDTVVIRGPSSDVEKAKKQLLHLAEEKQTKSFTVDIRAKPEYHKFLIGKGGGKIRKVRDSTGARVIFPAAEDKDQDLITIIGKEDAVREAQKELEALIQNLDNVVEDSMLVDPKHHRHFVIRRGQVLREIAEEYGGVMVSFPRSGTQSDKVTLKGAKDCVEAAKKRIQEIIEDLEAQVTLECAIPQKFHRSVMGPKGSRIQQITRDFSVQIKFPDREENAVHSTEPVVQENGDEAGEGREAKDCDPGSPRRCDIIIISGRKEKCEAAKEALEALVPVTIEVEVPFDLHRYVIGQKGSGIRKMMDEFEVNIHVPAPELQSDIIAITGLAANLDRAKAGLLERVKELQAEQEDRALRSFKLSVTVDPKYHPKIIGRKGAVITQIRLEHDVNIQFPDKDDGNQPQDQITITGYEKNTEAARDAILRIVGELEQMVSEDVPLDHRVHARIIGARGKAIRKIMDEFKVDIRFPQSGAPDPNCVTVTGLPENVEEAIDHILNLEEEYLADVVDSEALQVYMKPPAHEEAKAPSRGFVVRDAPWTASSSEKAPDMSSSEEFPSFGAQVAPKTLPWGPKR | 0.159 log2 | – |
| – | 1.978 | USP53 (protein, UniProt Q70EK8 1-1073, looked up) Ubiquitin carboxyl-terminal …: MAWVKFLRKPGGNLGKVYQPGSMLSLAPTKGLLNEPGQNSCFLNSAVQVLWQLDIFRRSLRVLTGHVCQGDACIFCALKTIFAQFQHSREKALPSDNIRHALAESFKDEQRFQLGLMDDAAECFENMLERIHFHIVPSRDADMCTSKSCITHQKFAMTLYEQCVCRSCGASSDPLPFTEFVRYISTTALCNEVERMLERHERFKPEMFAELLQAANTTDDYRKCPSNCGQKIKIRRVLMNCPEIVTIGLVWDSEHSDLTEAVVRNLATHLYLPGLFYRVTDENAKNSELNLVGMICYTSQHYCAFAFHTKSSKWVFFDDANVKEIGTRWKDVVSKCIRCHFQPLLLFYANPDGTAVSTEDALRQVISWSHYKSVAENMGCEKPVIHKSDNLKENGFGDQAKQRENQKFPTDNISSSNRSHSHTGVGKGPAKLSHIDQREKIKDISRECALKAIEQKNLLSSQRKDLEKGQRKDLGRHRDLVDEDLSHFQSGSPPAPNGFKQHGNPHLYHSQGKGSYKHDRVVPQSRASAQIISSSKSQILAPGEKITGKVKSDNGTGYDTDSSQDSRDRGNSCDSSSKSRNRGWKPMRETLNVDSIFSESEKRQHSPRHKPNISNKPKSSKDPSFSNWPKENPKQKGLMTIYEDEMKQEIGSRSSLESNGKGAEKNKGLVEGKVHGDNWQMQRTESGYESSDHISNGSTNLDSPVIDGNGTVMDISGVKETVCFSDQITTSNLNKERGDCTSLQSQHHLEGFRKELRNLEAGYKSHEFHPESHLQIKNHLIKRSHVHEDNGKLFPSSSLQIPKDHNAREHIHQSDEQKLEKPNECKFSEWLNIENSERTGLPFHVDNSASGKRVNSNEPSSLWSSHLRTVGLKPETAPLIQQQNIMDQCYFENSLSTECIIRSASRSDGCQMPKLFCQNLPPPLPPKKYAITSVPQSEKSESTPDVKLTEVFKATSHLPKHSLSTASEPSLEVSTHMNDERHKETFQVRECFGNTPNCPSSSSTNDFQANSGAIDAFCQPELDSISTCPNETVSLTTYFSVDSCMTDTYRLKYHQRPKLSFPESSGFCNNSLS | – | 5.4971 |
